Here are results for 21 sequences from patent US20190024087.

The data set addresses T1, GDF11 (mature human) (Homo sapiens) (UniProt O95390).
T1 sequence: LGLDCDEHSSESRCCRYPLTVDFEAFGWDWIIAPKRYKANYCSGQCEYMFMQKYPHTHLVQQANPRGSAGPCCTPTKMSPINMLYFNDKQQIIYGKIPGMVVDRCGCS
In words: filter. The note with it: NapdU at all P (n) positions, 0.1 uM Z-block.

The sequence “CCCTGGTTGACAAGGTACTGGACTTGATTTACGTTTAGCCTCAAGCACAA [12058-386_3]” showed a Kd of 6.7 nM.
Still for that read-out and setting: with “CTGTGACTAATGTGACCGGAGACTTGCTTTACGTTTAGCGACCTGCACAA [16139-12_3]” the figure was 1.7 nM; with “CTGTGGACTGAGTTGGATGGGACTTGATTTAAGTTTAGCCCGCAACACAA [16139-3_3]”, 1.58 nM; with “CTGTGCGTACTGACTTGATTTACGTTTTAGCGATGCATGCTTGAGCCACAA [16139-122_3]”, 2.23 nM.
For the sequence “CCCTGCGCCTTCGGACTTGGTTTAAGTTTAGCCGCTTGCTCACATCACAA [12060-28_39]”, the Kd was 1.2 nM.
The sequence “CCCTGCGCCTTCGGACTTGCTTTAAGTTTAGCCGCTTGCTCACGTCACAA [12060-130_3]” had a Kd of 0.61 nM.
“CTGTGGTTAACGACGACTTGATTTACGTTTAGCGGCACCTTACACCACAA [16139-19_3]” returned a Kd of 1.7 nM.
Still for that read-out and setting: next, “CCCTGCGCCTTCGGACTTGCTTTAAGTTTAGCCGCTCGCTCACATCACAA [12060-204_3]”: 0.94 nM.
“CCCTGCGCCTTCGGACTTGCTTTAAGTTTAGCCGCTTGTTCACATCACAA [12060-4_3]” returned a Kd of 0.9 nM.
As for “CTGTGAGTGTACCTCGCGCTTGATTTACGTTTAGGCGAGGCAGGCCACAA [16139-30_3]”, the Kd was 0.92 nM.
Consider “CCCTGCGCCTTCGGACTTGCTTTAAGTTTAGCCGCTTGCTCACAACACAA [12060-300_3]”, for which the dissociation constant Kd came to 0.99 nM.
Still for that read-out and setting: next, “CCCTGCGCCTTCGGACTTGCTTTACGTTTAGCCGCTTGCTCACATCACAA [12060-238_3]”: 3.4 nM; “CCCTGCGCCTTCGGACTTGCTTTAGGTTTAGCCGCTTGCTCACATCACAA [12060-28_40]”: 1.4 nM.
“CCCTGTGCCTTCGGACTTGCTTTAAGTTTAGCCGCTTGCTCACATCACAA [12060-32_3]” displayed a Kd of 1.45 nM.
On the same count and under the same terms, next, “CCCTGCGCCTTCGGACTTGATTTAAGTTTAGCCGCTTGCTCACATCACAA [12060-28_38]”: 1.1 nM; “CCCTGCGCCTTCGGACTTGCTTTAAGTTTAGCCGCTTGCTTACATCACAA [12060-116_3]”: 1.14 nM.
In turn, “CTGTGAACTTGATTTAAGTTTAGGCACATACACCACTCCGGACGA [16139-198_3]” came in with a Kd of 0.62 nM.
Turning to “CCCTGCGCCTTCGGACTTGCTTTAAGTTTAGCCGCTTGCTCACATCACAA [12060-28_3]”, the Kd (Table 5 gives 4.17 nM, p194 1.74 nM with 1 uM Z-block) is 1.7 nM.
The sequence “CTGTGCTAAGACTGCGGACTTGATTTAGGTTTAGCCGCAAGAAGTCACAA [16139-37_3]” showed a Kd of 1.21 nM.
As to “CTGTGACCTTCACCCGTGACTTGGTTTACGTTTAGCGGGTAGGTCACAA [16139-178_3]”, the Kd worked out at 1.08 nM.
In turn, “CCCTGTGAGACTTGATTTACGTTTAGCTGCTAACATGGGGAACCACACAA [12060-16_3]” registered a Kd (Table 5 gives 6.52 nM) of 6.5 nM.
